Assays:
CAFs [1] = test: Cytokine secretion by CAFs treated with sNG1 or NetG1 peptides (ELISA); type: cell-based; details: CAFs treated 7 days, media conditioned 2 days, vs CON
Procedure: 1.6×10^5 Control (CON) or NetrinG1 Ligand knockdown (NGL1 KD) CAFs were plated into 24 well plates and allowed to produce matrices in the presence of 50 μg/mL of ascorbic acid and were either untreated or treated with either soluble NetrinG1 (sNG1), NetG1 peptide corresponding to a domain known to engage with NGL1 (NPYMSNNE; SEQ ID NO:26; (FITC)—Ba-Asn-Pro-Tyr-Met-Ser-Asn-Asn-Glu-(NH2)), hypothesized to modestly prevent NetG1/NGL1 interaction (peptide), or a modified NetG1 peptide (NPTMSNNE; SEQ ID NO:27; (FITC)—Ba-Asn-Pro-Thr-Met-Ser-Asn-Asn-Glu-(NH2)) suspected to strongly prevent NetG1/NGL1 engagement (mutant), for 7 days. […] The media was then replaced with serum- and glutamine-free media and CAFs were allowed to condition the media for 2 days. Conditioned media was collected from each well and subjected to ELISA for the measurement of cytokine (TGF-β, IL-6, and IL-8) secretion. […] 01, *** p<. 001, **** p<. 0001. N=3-6.

CAF EVs = test: Clustering of CAF-secreted EVs treated after collection; details: CAF EVs incubated with the agent following their collection
CAFs [2] = test: EV production by CAFs treated with recombinant NGL1; type: cell-based
CAFs [3] = test: CAF blebbing under 3D conditions; type: cell-based, human
Source text: The phenotype is believed to indicate fibroblastic function after NGL1 engagement from other cells (like tumor cells). Similar effects were observed when cancer cells were co-cultured with CAFs using CAF-derived matrices as culturing scaffolds.

virus infected neurons = test: Synapse-dependent viral transmission between neurons; type: cell-based; details: neurons only, FIG. 3A/3C
Procedure: (§1) Viral transmission was used as a test to investigate the formation of functional synapses. […] The same experiment, as in Panel A, was conducted, except that virus (red) infected neurons (green) were plated onto a CAF culture bed (evident in transmitted microscopy images shown in bottom panels) to assess heterotypic neuron-CAF functional synapse formation (evidence by red virus spread into CAFs) while untreated (left) or treated with recombinant NGL1 (middle) or NetG1 (right) (Panel B).

[4] = tested on: virus infected neurons plated onto a CAF culture bed; test: Heterotypic neuron-CAF functional synapse formation (virus spread into CAFs); type: cell-based; details: FIG. 3B/3D
Procedure: as §1

PDAC cancer cells = test: Rescue of starvation-induced death of PDAC cancer cells by CAF-produced EVs; type: cell-based
Source text: PDAC cells die in the absence of nutrition but can be rescued using EVs secreted by intact CAFs. If CAFs are deficient in NetG1 expression, the resultant EVs fail to rescue PDAC cells from starvation. […] The pharmaceutical agents set forth herein will prevent the NetG1/NGL1 engagement and, thus, serve as therapeutics that will assure PDAC cells will not survive under nutritional stress as in vivo.

[5] = tested on: T cells from murine spleens; test: T cell activation with CD3/CD28; type: cell-based; details: recombinant NetG1 present during activation

Row | Molecule | secreted IL-6 (CAFs [1]) | secreted IL-8 (CAFs [1]) | secreted TGF-β (CAFs [1]) | EV clustering (CAF EVs) | clustering of EVs produced by treated CAFs (CAFs [2]) | number of EVs produced (CAFs [2]) | CAF blebbing (membrane ruffling or protruding) (CAFs [3]; 3D conditions that enable NetrinG1 expression in CAFs) | CAF blebbing in NetG1 KO CAFs (CAFs [3]; same treatment, NetG1 KO CAFs) | virus transmission via functional synapses between neurons (virus infected neurons) | functional synapses between neurons and fibroblasts (virus spread into CAFs) [4] | effectiveness of CAF-produced EVs in rescuing starvation-induced death of PDAC cancer cells (PDAC cancer cells; EVs pre-incubated with recombinant NGL1) | effectiveness of EVs from NetG1 deficient CAFs (NG1KO) in rescuing starvation-induced death of PDAC cancer cells (PDAC cancer cells; recombinant NetG1 treatment of KRAS-transformed pancreatic cells) | T cell activation (proliferation) by CD3/CD28 [5]
1 | NPTMSNNE (NetG1 polypeptide) [SEQ ID NO:27] | significant decreases | significant decreases | significant decreases | – | – | – | – | – | – | – | – | – | –
2 | NPYMSNNE (NetG1 polypeptide) [SEQ ID NO:26, NetG1 peptide corresponding to a domain known to engage with NGL1] | significant decreases | significant decreases | significant decreases | – | – | – | – | – | – | – | – | – | –
3 | recombinant NGL1: recombinant Netrin G1 ligand (NGL1) protein added to EVs or cell cultures (protein) QTCPSVCSCSNQFSKVICVRKNLREVPDGISTNTRLLNLHENQIQIIKVNSFKHLRHLEILQLSRNHIRTIEIGAFNGLANLNTLELFDNRLTTIPNGAFVYLSKLKELWLRNNPIESIPSYAFNRIPSLRRLDLGELKRLSYISEGAFEGLSNLRYLNLAMCNLREIPNLTPLIKLDELDLSGNHLSAIRPGSFQGLMHLQKLWMIQSQIQVIERNAFDNLQSLVEINLAHNNLTLLPHDLFTPLHHLERIHLHHNPWNCNCDILWLSWWIKDMAPSNTACCARCNTPPNLKGRYIGELDQNYFTCYAPVIVEPPADLNVTEGMAAELKCRASTSLTSVSWITPNGTVMTHGAYKVRIAVLSDGTLNFTNVTVQDTGMYTCMVSNSVGNTTASATLNVTAATTTPFSYFSTVTVETMEPSQDEARTTDNNVGPTPVVDWETTNVTTSLTPQSTRSTEKTFTIPVTDINSGIPGIDEVMKTTKIIIGCFVAITLMAAVMLVIFYKMRKQHHRQNHHAPTRTVEIINVDDEITGDTPMESHLPMPAIEHEHLNHYNSYKSPFNHTTTVNTINSIHSSVHEPLLIRMNSKDNVQETQI | – | – | – | enables small NetG1 positive (i.e., exomeres) | induced some clustering | production of increased numbers of EVs | induced CAF blebbing | blebbing was not observed | limited virus transmission | prevented | tends to decrease | – | –
4 | recombinant NetG1: recombinant Netrin G1 protein added to EVs or cell cultures (protein) HYDLCKTQIYTEEGKVWDYMACQPESTDMTKYLKVKLDPPDITCGDPPETFCAMGNPYMCNNECDASTPELAHPPELMFDFEGRHPSTFWQSATWKEYPKPLQVNITLSWSKTIELTDNIVITFESGRPDQMILEKSLDYGRTWQPYQYYATDCLDAFHMDPKSVKDLSQHTVLEIICTEEYSTGYTTNSKIIHFEIKDRFAFFAGPRLRNMASLYGQLDTTKKLRDFFTVTDLRIRLLRPAVGEIFVDELHLARYFYAISDIKVRGRCKCNLHATVCVYDNSKLTCECEHNTTGPDCGKCKKNYQGRPWSPGSYLPIPKGTANTCIPSISSIGNCECFGHSNRCSYIDLLNTVICVSCKHNTRGQHCELCRLGYFRNASAQLDDENVCIECYCNPLGSIHDRCNGSGFCECKTGTTGPKCDECLPGNSWHYGCQPNVCDNELLHCQNGGTCHNNVRCLCPAAYTGILCEKLRCEEAGSCGS | – | – | – | only clusters exosomes | – | – | – | – | limited virus transmission | prevented | – | improves the effectiveness of EVs | activation is prevented

Source: US12637502B2, “Netrin G1 polypeptides” (Institute For Cancer Research, priority 2019, dated 2026)
